According to US6548475:

Molecular target: molecules present at the cell surface of both cerebellar neurons and PC12 cells
Test: cell-based or functional assay

- percentage of adherent cells (mouse cerebellar neurons on KAL-coated surface, 90 min): 80%
Substance: purified recombinant human KAL protein (isolated from transfected CHO cells, clone CHKAL2-3/dll), coated on plastic (from UniProt P23352 25-680)
